From patent US20240199755A1, “ANTAGONISTS AND AGONISTS OF THE TRANSFERRIN RECEPTOR-2 FOR USE IN THE TREATMENT OF DISEASES OF THE BONE” (Kymab Limited, priority 2018, published 2024) come the findings set out here.

Entries after “also recorded” stand apart in the source; their conditions may differ.

The data set can be described thus: Iron, blood and bone parameters of wild type mice treated systemically with Tfr2-ECD. The data set is classed as in vivo. The protocol:
For systemic Tfr2-ECD treatment, WT mice were treated every other day with Tfr2-ECD intraperitoneally for two weeks. Mice received 250 μg Tfr2-ECD (10 mg/kg BW) per injection for the first 10 days after BMP-2/matrigel injection into the muscle and 125 μg per injection (5 mg/kg BW) for the remaining time. This experiment was performed once with 8-10 mice per group. Drop-weight HO: This experiment was performed according to Liu et al. with minor modifications^65. Female 10-12-week-old WT mice were anesthetized and placed on a ridge of a plastic container over which the right leg was bent so the femur was lying horizontally. Mice received an injection of 1 μg BMP-2 mixed in 50 μl matrigel. Afterwards, a stainless-steel ball of 16 g (16 mm diameter) was dropped from a distance of 80 cm height onto the quadriceps muscle. Mice either received a single dose of 1 μg Tfr2-ECD, which was co-injected with the BMP-2/matrigel mixture, or palovarotene (Hycultec), which was administered daily by oral gavage. Palovarotene was dissolved in DMSO and diluted 1:4 with corn oil. Mice received palovarotene at a dose of 100 μg/mouse for the first five days and 50 μg/mouse for the remainder of the experiment (days 621). One group of mice received ibuprofen via the drinking water at a dose of […] which was changed every other day^66. Mice received methamizole (200 mg/kg) to reduce pain for the entire duration of the experiment. This experiment was performed twice with 6 mice per group.
Bone microarchitecture was analyzed using the vivaCT40 (Scanco Medical, Switzerland). The femur and the fourth lumbar vertebra were imaged at a resolution of 10.5 μm with X-ray energy of 70 kVp, […], and an integration time of 200 ms. The trabecular bone in the femur was assessed in the metaphysis 20 slices below the growth plate using 150 slices. In the vertebral bone, 150 slices were measured between both growth plates. The cortical bone was determined in the femoral midshaft (150 slices). Pre-defined scripts from Scanco were used for the evaluation.
The iron concentration in the liver was determined using 20 mg of dried liver tissue as previously published^8. The iron concentration in the bone was determined using atomic absorption spectroscopy (PerkinElmer Analyst 800) of dried bone tissue (bone marrow-flushed femur and tibia) as previously published^69.
The bone turnover markers C-terminal telopeptide (CTX) and pro-collagen type I N-terminal peptide (P1NP) were measured in the serum using ELISAs (IDS, Germany). Serum dickkopf-1 and BMP-2 were measured using ELISAs from R&D Systems (Germany). Mouse sclerostin was measured with an ELISA from Alpco (USA). Serum ferritin and iron were measured using routine methods for clinical analyses on a Roche Modular PPE analyzer. The transferrin saturation was determined using a total iron binding capacity kit from Randox.

Where [1] appears, read: wild type mice, systemic Tfr2-ECD, n = 8, means ± SD.

B1: Tfr2-ECD: Recombinant full-length extracellular domain (aa 103-798) of murine Tfr2, His-tagged, expressed in Sf9 insect cells (protein, listed as Mus musculus)
chain: RGSCQACGDSVLVVDEDVNPEDSGRTTLYWSDLQAMFLRFLGEGRMEDTIRLTSLRERVAGSARMATLVQDILDKLSRQKLDHVWTDTHYVGLQFPDPAHANTLHWVDADGSVQEQLPLEDPEVYCPYSATGNATGKLVYAHYGRSEDLQDLKAKGVELAGSLLLVRVGITSFAQKVAVAQDFGAQGVLIYPDPSDFSQDPHKPGLSSHQAVYGHVHLGTGDPYTPGFPSFNQTQFPPVESSGLPSIPAQPISADIADQLLRKLTGPVAPQEWKGHLSGSPYRLGPGPDLRLVVNNHRVSTPISNIFACIEGFAEPDHYVVIGAQRDAWGPGAAKSAVGTAILLELVRTFSSMVSNGFRPRRSLLFISWDGGDFGSVGATEWLEGYLSVLHLKAVVYVSLDNSVLGDGKFHAKTSPLLVSLIENILKQVDSPNHSGQTLYEQVALTHPSWDAEVIQPLPMDSSAYSFTAFAGVPAVEFSFMEDDRVYPFLHTKEDTYENLHKMLRGRLPAVVQAVAQLAGQLLIRLSHDHLLPLDFGRYGDVVLRHIGNLNEFSGDLKERGLTLQWVYSARGDYIRAAEKLRKEIYSSERNDERLMRMYNVRIMRVEFYFLSQYVSPADSPFRHIFLGQGDHTLGALVDHLRMLRADGSGAASSRLTAGLGFQESRFRRQLALLTWTLQGAANALSGDVWNIDNNF
modifications: His tag
notes: Recombinant full-length extracellular domain (aa 103-798) of murine Tfr2, His-tagged, expressed in Sf9 insect cells
B1: for the setting “systemic Tfr2-ECD treatment, 2 week treatment period”, the “Adverse effects on blood counts, iron parameters, bone homeostasis or gross morphology of internal organs” value is listed as “No adverse effects; also recorded: did not show adverse effects”. Further, under setting [1], the “Differential counts, Lymphocytes” value is listed as 90.1 ± 4.35%; the “Differential counts, Monocytes” value is listed as 2.17 ± 2.55%; the “Differential counts, Neutrophils” value amounted to 7.33 ± 2.82%; the HCT is 0.51 ± 0.02. Moreover, under setting [1], the Heart iron was 207.8 ± 54.1 μg/g dry tissue, the Hemoglobin came out at 9.77 ± 0.41 mmol/L, the Kidney iron was determined as 112.6 ± 15.0 μg/g dry tissue and the Liver iron is given as 578.3 ± 273^ μg/g dry tissue. Under setting [1], the Plasma iron worked out at 30.1 ± 3.3 µmol/L, the Platelets is given as 385 ± 69.5 10^9/L, the RBC was 10.1 ± 0.40 10^12/L and the Reticulocytes is on record as 197 ± 24.2 10^9/L. In addition, under setting [1], the Spleen iron was 620.2 ± 113^ μg/g dry tissue, the WBC is 11.0 ± 3.09 10^9/L, the “μCT BV/TV Femur” value worked out at 10.7 ± 3.09% and the “μCT BV/TV Vertebrae” value is on record as 24.1 ± 3.36%.
